Laboratory results: publication PMC11840039
Like-named read-outs stand apart in the source and are kept apart here.

Tests used:
Assay in all cases: cryo-EM structure
[1] = target: Human Slo1 (hSlo1), BK channel α subunit, residues 1-1056 (human)
[2] = target: Human Slo1 (hSlo1), BK channel α subunit, residues 1-1056 (human); remark: listed apart in the source
[3] = target: Human Slo1 (hSlo1), BK channel α subunit, residues 1-1056 (human); remark: listed apart in the source
[4] = target: Human Slo1 (hSlo1), BK channel α subunit, residues 1-1056 (human); remark: listed apart in the source

Measured: stoichiometry N

Human Slo1 (hSlo1), BK channel α subunit, residues 1-1056 (natural protein)
4: all assays above
